One test addresses IL10 receptor (UniProt Q13651). Nature of the test: cell-based or functional assay.
For the next test, the target named is IL4 (type II) receptor (UniProt P24394). Briefly: cell-based or functional assay.
IL4 (type II) receptor, sequence (P24394 26-825 limits assumed, chain 1 of 2): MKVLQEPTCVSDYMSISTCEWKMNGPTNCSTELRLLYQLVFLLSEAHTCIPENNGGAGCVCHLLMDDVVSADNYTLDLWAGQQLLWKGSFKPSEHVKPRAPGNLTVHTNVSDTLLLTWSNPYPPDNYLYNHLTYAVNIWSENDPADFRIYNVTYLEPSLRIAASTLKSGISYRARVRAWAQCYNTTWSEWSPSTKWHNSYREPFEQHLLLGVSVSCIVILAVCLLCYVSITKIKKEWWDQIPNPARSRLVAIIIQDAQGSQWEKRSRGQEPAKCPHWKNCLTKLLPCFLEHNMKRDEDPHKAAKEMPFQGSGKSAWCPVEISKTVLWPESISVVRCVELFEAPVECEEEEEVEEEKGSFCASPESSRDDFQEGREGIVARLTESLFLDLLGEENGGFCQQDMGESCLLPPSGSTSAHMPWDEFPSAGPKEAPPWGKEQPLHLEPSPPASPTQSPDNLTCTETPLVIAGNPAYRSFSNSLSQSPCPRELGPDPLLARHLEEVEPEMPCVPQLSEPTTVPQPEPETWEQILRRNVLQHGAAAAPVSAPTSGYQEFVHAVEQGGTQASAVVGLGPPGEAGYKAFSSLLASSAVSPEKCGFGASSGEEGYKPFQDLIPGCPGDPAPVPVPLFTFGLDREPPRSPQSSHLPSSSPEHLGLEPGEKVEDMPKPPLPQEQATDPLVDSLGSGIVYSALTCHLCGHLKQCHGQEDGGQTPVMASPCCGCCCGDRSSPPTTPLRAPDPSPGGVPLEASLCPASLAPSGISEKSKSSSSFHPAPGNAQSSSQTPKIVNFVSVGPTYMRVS
IL4 (type II) receptor, sequence (P78552 22-427 limits assumed, chain 2 of 2, further chain): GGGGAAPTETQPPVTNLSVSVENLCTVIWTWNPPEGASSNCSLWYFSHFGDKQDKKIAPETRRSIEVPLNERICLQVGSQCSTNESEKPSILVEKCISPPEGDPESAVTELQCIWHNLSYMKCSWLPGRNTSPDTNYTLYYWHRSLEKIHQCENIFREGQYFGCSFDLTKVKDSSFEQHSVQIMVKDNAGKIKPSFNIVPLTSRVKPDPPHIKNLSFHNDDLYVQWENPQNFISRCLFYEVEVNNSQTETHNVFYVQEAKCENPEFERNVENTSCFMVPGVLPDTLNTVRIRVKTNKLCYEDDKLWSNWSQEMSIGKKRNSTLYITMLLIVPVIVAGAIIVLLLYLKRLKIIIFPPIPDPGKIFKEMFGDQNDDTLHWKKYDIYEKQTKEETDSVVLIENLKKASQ

IL10 receptor, sequence (Q13651 22-578 limits assumed, chain 1 of 2): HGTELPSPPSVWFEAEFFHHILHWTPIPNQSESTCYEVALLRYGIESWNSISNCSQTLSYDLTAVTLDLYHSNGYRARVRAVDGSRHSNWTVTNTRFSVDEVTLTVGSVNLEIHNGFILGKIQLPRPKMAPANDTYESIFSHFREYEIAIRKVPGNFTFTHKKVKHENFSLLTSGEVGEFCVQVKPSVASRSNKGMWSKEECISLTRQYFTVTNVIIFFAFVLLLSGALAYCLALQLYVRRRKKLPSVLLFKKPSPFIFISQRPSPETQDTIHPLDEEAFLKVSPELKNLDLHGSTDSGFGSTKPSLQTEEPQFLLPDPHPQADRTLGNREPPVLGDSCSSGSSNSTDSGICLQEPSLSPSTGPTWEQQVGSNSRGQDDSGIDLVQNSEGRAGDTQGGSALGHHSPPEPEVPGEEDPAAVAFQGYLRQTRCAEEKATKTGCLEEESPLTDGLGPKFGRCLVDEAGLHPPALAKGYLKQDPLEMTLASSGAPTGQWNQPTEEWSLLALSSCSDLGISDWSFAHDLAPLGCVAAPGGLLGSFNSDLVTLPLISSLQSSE
IL10 receptor, sequence (Q08334 20-325 limits assumed, chain 2 of 2, further chain): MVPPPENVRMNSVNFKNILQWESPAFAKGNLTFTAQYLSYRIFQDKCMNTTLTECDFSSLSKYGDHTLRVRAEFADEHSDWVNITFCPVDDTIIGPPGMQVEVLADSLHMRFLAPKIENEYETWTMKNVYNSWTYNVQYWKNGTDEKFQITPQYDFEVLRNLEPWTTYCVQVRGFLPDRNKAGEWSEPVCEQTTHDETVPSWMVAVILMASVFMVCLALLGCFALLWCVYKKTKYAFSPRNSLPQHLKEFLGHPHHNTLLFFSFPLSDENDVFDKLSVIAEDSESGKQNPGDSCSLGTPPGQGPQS

“IL10 (from UniProt P22301 19-178) (ligand)” returned an HEK-Blue IL10 EC50 (STAT-3 mediated SEAP expression) with IL10 receptor of 0.0264 nM.

“IL13 (from UniProt P35225 33-146) (ligand)” came in with an HEK-Blue IL4/13 EC50 (STAT6-induced SEAP expression) in the test with IL4 (type II) receptor of 0.033 nM.
